Blank lines part the entries; values can stand above or below the sequence they belong to.
Key:
AncSZ = test: phosphorylation enrichment, bacterial display (enrichment ratio); higher = better substrate or ligand; peptides without Tyr show the background
EPHB1 = EPHB1 (UniProt P54762); test: as above
EPHB2 = EPHB2 (UniProt P29323); test: as above
FGFR1 = FGFR1 (UniProt P11362); test: as above
FGFR3 = FGFR3 (UniProt P22607); test: as above
Fer (mouse) = test: as above
Fes = Fes (UniProt P07332); test: as above
Sequence of Fes (P07332 whole entry, looked up): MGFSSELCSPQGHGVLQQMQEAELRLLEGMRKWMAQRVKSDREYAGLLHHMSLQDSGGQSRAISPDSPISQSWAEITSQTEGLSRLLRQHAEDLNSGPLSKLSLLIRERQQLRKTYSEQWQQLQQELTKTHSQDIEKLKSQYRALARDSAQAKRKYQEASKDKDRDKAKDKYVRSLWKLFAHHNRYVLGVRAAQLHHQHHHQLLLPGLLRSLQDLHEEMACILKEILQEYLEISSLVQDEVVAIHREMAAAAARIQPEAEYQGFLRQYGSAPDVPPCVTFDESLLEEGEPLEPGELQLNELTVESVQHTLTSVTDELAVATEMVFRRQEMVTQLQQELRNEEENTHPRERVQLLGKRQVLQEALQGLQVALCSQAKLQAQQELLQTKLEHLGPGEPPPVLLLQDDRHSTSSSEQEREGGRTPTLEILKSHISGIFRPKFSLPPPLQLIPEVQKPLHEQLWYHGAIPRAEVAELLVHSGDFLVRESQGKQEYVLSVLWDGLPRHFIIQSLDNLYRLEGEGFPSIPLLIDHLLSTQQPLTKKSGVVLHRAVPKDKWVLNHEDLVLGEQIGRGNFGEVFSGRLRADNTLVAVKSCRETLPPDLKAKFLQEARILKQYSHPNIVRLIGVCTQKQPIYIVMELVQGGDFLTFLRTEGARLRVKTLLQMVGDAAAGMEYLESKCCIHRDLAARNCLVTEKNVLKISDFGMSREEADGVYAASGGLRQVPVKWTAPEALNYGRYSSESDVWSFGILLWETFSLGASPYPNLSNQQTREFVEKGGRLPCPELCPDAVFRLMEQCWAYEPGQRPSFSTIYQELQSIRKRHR

Fyn = Fyn (UniProt P06241); test: as above
Sequence of Fyn (P06241 whole entry, looked up): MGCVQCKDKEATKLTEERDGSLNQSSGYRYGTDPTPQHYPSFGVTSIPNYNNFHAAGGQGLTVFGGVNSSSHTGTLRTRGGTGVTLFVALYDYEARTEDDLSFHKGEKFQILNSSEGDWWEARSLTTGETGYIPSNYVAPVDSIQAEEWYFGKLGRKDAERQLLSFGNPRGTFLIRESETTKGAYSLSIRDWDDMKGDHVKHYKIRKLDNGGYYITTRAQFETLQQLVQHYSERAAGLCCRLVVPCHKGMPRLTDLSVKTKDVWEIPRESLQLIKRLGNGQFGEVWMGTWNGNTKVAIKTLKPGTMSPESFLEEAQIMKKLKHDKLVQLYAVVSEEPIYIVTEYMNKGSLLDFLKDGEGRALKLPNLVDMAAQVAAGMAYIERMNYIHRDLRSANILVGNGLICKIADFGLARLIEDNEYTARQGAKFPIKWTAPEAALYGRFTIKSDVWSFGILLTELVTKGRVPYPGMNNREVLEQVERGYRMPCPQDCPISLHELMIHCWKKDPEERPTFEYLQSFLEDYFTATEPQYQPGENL

Hck = Hck (UniProt P08631); test: as above
Sequence of Hck (P08631 whole entry, looked up): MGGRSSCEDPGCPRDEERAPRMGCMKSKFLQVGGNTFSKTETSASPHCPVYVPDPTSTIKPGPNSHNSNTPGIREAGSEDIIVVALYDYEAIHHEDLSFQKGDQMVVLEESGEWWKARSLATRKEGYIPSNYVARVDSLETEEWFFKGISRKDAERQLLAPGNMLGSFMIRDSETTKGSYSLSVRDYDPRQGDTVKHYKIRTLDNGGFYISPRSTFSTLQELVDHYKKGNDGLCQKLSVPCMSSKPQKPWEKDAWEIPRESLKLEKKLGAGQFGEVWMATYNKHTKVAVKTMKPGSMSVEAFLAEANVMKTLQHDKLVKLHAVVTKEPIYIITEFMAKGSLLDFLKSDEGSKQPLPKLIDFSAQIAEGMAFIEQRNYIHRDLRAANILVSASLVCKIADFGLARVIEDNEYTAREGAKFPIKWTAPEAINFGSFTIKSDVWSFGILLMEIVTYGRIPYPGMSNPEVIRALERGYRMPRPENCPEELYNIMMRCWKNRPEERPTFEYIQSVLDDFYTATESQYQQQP

Jak2 = Jak2 (UniProt O60674); test: as above
Sequence of Jak2 (O60674 whole entry, looked up): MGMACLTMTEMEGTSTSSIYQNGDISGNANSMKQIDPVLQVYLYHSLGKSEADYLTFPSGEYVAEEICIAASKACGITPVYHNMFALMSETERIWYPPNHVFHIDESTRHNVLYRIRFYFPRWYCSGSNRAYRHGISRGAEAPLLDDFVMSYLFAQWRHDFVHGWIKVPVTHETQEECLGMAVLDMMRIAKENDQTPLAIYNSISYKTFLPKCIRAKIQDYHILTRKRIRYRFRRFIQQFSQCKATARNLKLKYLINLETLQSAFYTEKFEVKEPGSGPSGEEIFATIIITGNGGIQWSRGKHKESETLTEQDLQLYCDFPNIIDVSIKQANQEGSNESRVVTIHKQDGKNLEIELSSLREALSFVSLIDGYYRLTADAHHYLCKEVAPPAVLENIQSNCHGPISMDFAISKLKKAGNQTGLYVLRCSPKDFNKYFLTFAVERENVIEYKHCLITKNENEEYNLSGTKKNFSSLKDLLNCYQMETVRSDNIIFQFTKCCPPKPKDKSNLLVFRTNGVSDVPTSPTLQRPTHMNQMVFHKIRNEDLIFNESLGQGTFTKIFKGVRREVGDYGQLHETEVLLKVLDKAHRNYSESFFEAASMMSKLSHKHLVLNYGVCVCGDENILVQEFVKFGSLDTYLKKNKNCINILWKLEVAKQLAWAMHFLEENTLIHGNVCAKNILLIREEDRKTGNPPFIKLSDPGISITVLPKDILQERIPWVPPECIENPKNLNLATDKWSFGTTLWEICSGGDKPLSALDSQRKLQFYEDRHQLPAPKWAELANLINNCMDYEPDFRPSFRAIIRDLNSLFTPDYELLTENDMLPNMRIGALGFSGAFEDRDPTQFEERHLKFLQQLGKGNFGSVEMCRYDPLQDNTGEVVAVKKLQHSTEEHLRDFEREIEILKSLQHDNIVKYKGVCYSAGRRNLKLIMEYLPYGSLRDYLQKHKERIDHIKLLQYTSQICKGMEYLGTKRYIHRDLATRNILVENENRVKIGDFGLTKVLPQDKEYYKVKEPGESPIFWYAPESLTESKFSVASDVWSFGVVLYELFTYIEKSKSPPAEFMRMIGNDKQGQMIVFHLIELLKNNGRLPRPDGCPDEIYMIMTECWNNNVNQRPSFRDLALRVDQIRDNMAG

MERTK = MERTK (UniProt Q12866); test: as above
c-Abl (mouse) = test: as above
c-Src = test: as above
Grb2 SH2 = Grb2 SH2 (UniProt P62993); test: SH2 binding enrichment of the phosphorylated peptide, bacterial display (enrichment ratio); higher = better substrate or ligand; peptides without Tyr show the background
SHP2-C SH2 = test: as above
c-Src SH2 = test: as above
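Wherever SH2 binding enrichment of the phosphorylated peptide, bacterial display is given: peptide library displayed on the E. coli surface as eCPX fusions, selected cells deep-sequenced, score is each peptide's frequency after selection divided by its frequency in the input.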
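Wherever phosphorylation enrichment, bacterial display is given: 11-residue human phosphosite peptides and single-mutation variants displayed on the E. coli surface, counted by deep sequencing, each peptide's frequency after selection divided by its frequency in the unselected input library; frequency after pTyr selection over input frequency; kinase dosed for 20-30% of maximal phosphorylation in three min.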

Sequence of FGFR1 (P11362 whole entry, looked up): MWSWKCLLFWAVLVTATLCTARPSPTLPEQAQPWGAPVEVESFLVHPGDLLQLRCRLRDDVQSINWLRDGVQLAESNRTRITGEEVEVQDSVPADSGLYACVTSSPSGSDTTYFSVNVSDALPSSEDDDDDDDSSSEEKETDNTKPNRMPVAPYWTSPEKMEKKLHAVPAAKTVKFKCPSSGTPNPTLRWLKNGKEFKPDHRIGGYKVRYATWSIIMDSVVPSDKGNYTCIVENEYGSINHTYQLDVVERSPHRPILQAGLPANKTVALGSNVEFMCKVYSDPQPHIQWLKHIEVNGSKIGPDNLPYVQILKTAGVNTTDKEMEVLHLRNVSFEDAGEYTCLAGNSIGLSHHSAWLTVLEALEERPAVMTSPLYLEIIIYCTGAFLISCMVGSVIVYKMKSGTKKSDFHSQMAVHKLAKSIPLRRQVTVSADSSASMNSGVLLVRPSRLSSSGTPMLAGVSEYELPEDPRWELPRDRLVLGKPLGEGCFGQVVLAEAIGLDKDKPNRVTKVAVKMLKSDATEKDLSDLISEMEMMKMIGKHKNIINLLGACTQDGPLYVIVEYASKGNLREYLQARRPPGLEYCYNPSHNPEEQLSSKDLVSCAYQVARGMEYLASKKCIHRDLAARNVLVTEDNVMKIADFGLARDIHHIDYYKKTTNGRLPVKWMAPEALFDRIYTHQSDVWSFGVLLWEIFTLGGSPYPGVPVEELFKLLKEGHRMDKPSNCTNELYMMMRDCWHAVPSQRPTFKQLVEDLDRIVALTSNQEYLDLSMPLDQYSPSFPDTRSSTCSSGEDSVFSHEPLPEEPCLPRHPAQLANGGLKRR
Sequence of EPHB1 (P54762 whole entry, looked up): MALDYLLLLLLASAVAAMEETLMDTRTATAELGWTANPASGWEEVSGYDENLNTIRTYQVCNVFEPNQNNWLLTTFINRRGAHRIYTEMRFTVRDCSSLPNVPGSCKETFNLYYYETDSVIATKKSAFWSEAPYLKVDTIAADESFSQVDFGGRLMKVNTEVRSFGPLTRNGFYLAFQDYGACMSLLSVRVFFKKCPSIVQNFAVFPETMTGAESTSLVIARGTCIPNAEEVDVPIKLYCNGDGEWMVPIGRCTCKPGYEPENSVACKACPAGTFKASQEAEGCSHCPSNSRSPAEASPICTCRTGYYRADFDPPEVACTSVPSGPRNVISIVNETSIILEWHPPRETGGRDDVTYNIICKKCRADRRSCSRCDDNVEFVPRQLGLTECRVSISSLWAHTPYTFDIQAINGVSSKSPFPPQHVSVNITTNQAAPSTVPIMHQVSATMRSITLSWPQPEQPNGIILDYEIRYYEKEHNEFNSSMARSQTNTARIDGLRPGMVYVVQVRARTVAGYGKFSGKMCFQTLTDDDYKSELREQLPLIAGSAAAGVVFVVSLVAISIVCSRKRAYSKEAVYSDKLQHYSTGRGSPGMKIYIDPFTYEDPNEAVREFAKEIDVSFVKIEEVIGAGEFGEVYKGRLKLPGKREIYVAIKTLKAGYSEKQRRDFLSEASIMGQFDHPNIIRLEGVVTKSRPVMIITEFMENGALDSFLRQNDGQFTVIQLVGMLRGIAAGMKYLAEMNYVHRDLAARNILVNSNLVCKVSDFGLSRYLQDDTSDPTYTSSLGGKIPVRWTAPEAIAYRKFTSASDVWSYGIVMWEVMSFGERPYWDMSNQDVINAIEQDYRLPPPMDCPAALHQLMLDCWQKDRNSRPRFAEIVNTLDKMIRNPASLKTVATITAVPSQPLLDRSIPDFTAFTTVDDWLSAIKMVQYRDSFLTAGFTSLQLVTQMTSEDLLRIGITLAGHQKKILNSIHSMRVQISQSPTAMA

Sequence: KPIETYFSKNF [PLP1_Y50_L46P_YF]
phosphorylation enrichment (AncSZ): 0.656
phosphorylation enrichment (EPHB1): 0.506
phosphorylation enrichment (EPHB2): 0.497
phosphorylation enrichment (FGFR1): 0.417
phosphorylation enrichment (FGFR3): 0.555
phosphorylation enrichment (Fer (mouse)): 0.379
phosphorylation enrichment (Fes): 0.775
phosphorylation enrichment (Fyn): 0.544
phosphorylation enrichment (Hck): 0.436
phosphorylation enrichment (Jak2): 0.636
phosphorylation enrichment (MERTK): 0.465
phosphorylation enrichment (c-Abl (mouse)): 0.53
phosphorylation enrichment (c-Src): 0.44
SH2 binding enrichment (Grb2 SH2): 0.663
SH2 binding enrichment (SHP2-C SH2): 0.568
SH2 binding enrichment (c-Src SH2): 0.439

Sequence: KPNMNYDKLSQ [FLI1_Y332_R337Q]
phosphorylation enrichment (AncSZ): 0.495
phosphorylation enrichment (EPHB1): 0.418
phosphorylation enrichment (EPHB2): 0.446
phosphorylation enrichment (FGFR1): 0.468
phosphorylation enrichment (FGFR3): 0.447
phosphorylation enrichment (Fer (mouse)): 0.462
phosphorylation enrichment (Fes): 0.578
phosphorylation enrichment (Fyn): 0.422
phosphorylation enrichment (Hck): 0.431
phosphorylation enrichment (Jak2): 0.612
phosphorylation enrichment (MERTK): 0.394
phosphorylation enrichment (c-Abl (mouse)): 0.431
phosphorylation enrichment (c-Src): 0.478
SH2 binding enrichment (Grb2 SH2): 0.882
SH2 binding enrichment (SHP2-C SH2): 0.659
SH2 binding enrichment (c-Src SH2): 1.15

Sequence: KPYRVYCDMNT [FGB_Y269]
phosphorylation enrichment (AncSZ): 1.04
phosphorylation enrichment (EPHB1): 1.53
phosphorylation enrichment (EPHB2): 0.783
phosphorylation enrichment (FGFR1): 0.51
phosphorylation enrichment (FGFR3): 0.789
phosphorylation enrichment (Fer (mouse)): 0.68
phosphorylation enrichment (Fes): 1.13
phosphorylation enrichment (Fyn): 0.6
phosphorylation enrichment (Hck): 0.691
phosphorylation enrichment (Jak2): 1.1
phosphorylation enrichment (MERTK): 0.492
phosphorylation enrichment (c-Abl (mouse)): 0.779
phosphorylation enrichment (c-Src): 0.562
SH2 binding enrichment (Grb2 SH2): 1.03
SH2 binding enrichment (SHP2-C SH2): 0.658
SH2 binding enrichment (c-Src SH2): 1.04

Sequence: KQINDYVEKGT [SERPINA1_Y184]
phosphorylation enrichment (AncSZ): 0.733
phosphorylation enrichment (EPHB1): 0.491
phosphorylation enrichment (EPHB2): 0.431
phosphorylation enrichment (FGFR1): 0.402
phosphorylation enrichment (FGFR3): 0.58
phosphorylation enrichment (Fer (mouse)): 0.536
phosphorylation enrichment (Fes): 0.905
phosphorylation enrichment (Fyn): 0.44
phosphorylation enrichment (Hck): 0.433
phosphorylation enrichment (Jak2): 0.72
phosphorylation enrichment (MERTK): 0.374
phosphorylation enrichment (c-Abl (mouse)): 0.546
phosphorylation enrichment (c-Src): 0.478
SH2 binding enrichment (Grb2 SH2): 0.726
SH2 binding enrichment (SHP2-C SH2): 0.585
SH2 binding enrichment (c-Src SH2): 0.528

Sequence: KRLFAYKMLMA [TMC2_Y209_Q205R_YF]
phosphorylation enrichment (AncSZ): 0.767
phosphorylation enrichment (EPHB1): 0.484
phosphorylation enrichment (EPHB2): 0.528
phosphorylation enrichment (FGFR1): 0.458
phosphorylation enrichment (FGFR3): 0.683
phosphorylation enrichment (Fer (mouse)): 0.59
phosphorylation enrichment (Fes): 0.867
phosphorylation enrichment (Fyn): 0.433
phosphorylation enrichment (Hck): 0.455
phosphorylation enrichment (Jak2): 0.669
phosphorylation enrichment (MERTK): 0.375
phosphorylation enrichment (c-Abl (mouse)): 0.58
phosphorylation enrichment (c-Src): 0.367
SH2 binding enrichment (Grb2 SH2): 2.05
SH2 binding enrichment (SHP2-C SH2): 1.98
SH2 binding enrichment (c-Src SH2): 1.51

Sequence: KSDVVYTDWKK [ORM1_Y175]
phosphorylation enrichment (AncSZ): 0.856
phosphorylation enrichment (EPHB1): 0.44
phosphorylation enrichment (EPHB2): 0.513
phosphorylation enrichment (FGFR1): 0.558
phosphorylation enrichment (FGFR3): 0.609
phosphorylation enrichment (Fer (mouse)): 0.592
phosphorylation enrichment (Fes): 1.02
phosphorylation enrichment (Fyn): 1.55
phosphorylation enrichment (Hck): 4.84
phosphorylation enrichment (Jak2): 0.648
phosphorylation enrichment (MERTK): 0.559
phosphorylation enrichment (c-Abl (mouse)): 1.4
phosphorylation enrichment (c-Src): 1.65
SH2 binding enrichment (Grb2 SH2): 0.757
SH2 binding enrichment (SHP2-C SH2): 0.885
SH2 binding enrichment (c-Src SH2): 0.505

Sequence: KVALLYKPFFF [POLE_Y100_P99L_YF]
phosphorylation enrichment (AncSZ): 1.15
phosphorylation enrichment (EPHB1): 0.516
phosphorylation enrichment (EPHB2): 0.606
phosphorylation enrichment (FGFR1): 0.496
phosphorylation enrichment (FGFR3): 0.704
phosphorylation enrichment (Fer (mouse)): 1.39
phosphorylation enrichment (Fes): 1.17
phosphorylation enrichment (Fyn): 0.827
phosphorylation enrichment (Hck): 0.82
phosphorylation enrichment (Jak2): 1.12
phosphorylation enrichment (MERTK): 0.772
phosphorylation enrichment (c-Abl (mouse)): 0.921
phosphorylation enrichment (c-Src): 1.67
SH2 binding enrichment (Grb2 SH2): 1.78
SH2 binding enrichment (SHP2-C SH2): 1.62
SH2 binding enrichment (c-Src SH2): 1.49

Sequence: KVMANYMYKAG [MAML2_Y513]
phosphorylation enrichment (AncSZ): 0.617
phosphorylation enrichment (EPHB1): 0.505
phosphorylation enrichment (EPHB2): 0.533
phosphorylation enrichment (FGFR1): 0.529
phosphorylation enrichment (FGFR3): 0.512
phosphorylation enrichment (Fer (mouse)): 0.388
phosphorylation enrichment (Fes): 0.836
phosphorylation enrichment (Fyn): 0.404
phosphorylation enrichment (Hck): 0.461
phosphorylation enrichment (Jak2): 0.49
phosphorylation enrichment (MERTK): 0.33
phosphorylation enrichment (c-Abl (mouse)): 0.54
phosphorylation enrichment (c-Src): 0.296
SH2 binding enrichment (Grb2 SH2): 1.16
SH2 binding enrichment (SHP2-C SH2): 1.06
SH2 binding enrichment (c-Src SH2): 0.849

Continued, in another order:

SH2 binding enrichment (Grb2 SH2): 0.895
SH2 binding enrichment (SHP2-C SH2): 0.725
SH2 binding enrichment (c-Src SH2): 1.59
Sequence: KPNMNYDKLSR [FLI1_Y332]
phosphorylation enrichment (AncSZ): 0.548
phosphorylation enrichment (EPHB1): 0.494
phosphorylation enrichment (EPHB2): 0.541
phosphorylation enrichment (FGFR1): 0.416
phosphorylation enrichment (FGFR3): 0.4
phosphorylation enrichment (Fer (mouse)): 0.324
phosphorylation enrichment (Fes): 0.486
phosphorylation enrichment (Fyn): 0.342
phosphorylation enrichment (Hck): 0.454
phosphorylation enrichment (Jak2): 0.389
phosphorylation enrichment (MERTK): 0.337
phosphorylation enrichment (c-Abl (mouse)): 0.459
phosphorylation enrichment (c-Src): 0.418

SH2 binding enrichment (Grb2 SH2): 1.04
SH2 binding enrichment (SHP2-C SH2): 0.517
SH2 binding enrichment (c-Src SH2): 0.762
Sequence: KPPPSYESEEE [BRD4_Y599_T598S]
phosphorylation enrichment (AncSZ): 1.42
phosphorylation enrichment (EPHB1): 0.611
phosphorylation enrichment (EPHB2): 0.761
phosphorylation enrichment (FGFR1): 0.584
phosphorylation enrichment (FGFR3): 0.71
phosphorylation enrichment (Fer (mouse)): 0.557
phosphorylation enrichment (Fes): 1.29
phosphorylation enrichment (Fyn): 0.639
phosphorylation enrichment (Hck): 0.601
phosphorylation enrichment (Jak2): 1.32
phosphorylation enrichment (MERTK): 0.543
phosphorylation enrichment (c-Abl (mouse)): 0.957
phosphorylation enrichment (c-Src): 0.591

SH2 binding enrichment (Grb2 SH2): 0.848
SH2 binding enrichment (SHP2-C SH2): 0.64
SH2 binding enrichment (c-Src SH2): 0.923
Sequence: KPVDTYYDSTR [DYNC2H1_Y2230_M2227V]
phosphorylation enrichment (AncSZ): 0.808
phosphorylation enrichment (EPHB1): 0.648
phosphorylation enrichment (EPHB2): 0.496
phosphorylation enrichment (FGFR1): 0.826
phosphorylation enrichment (FGFR3): 0.668
phosphorylation enrichment (Fer (mouse)): 0.427
phosphorylation enrichment (Fes): 0.809
phosphorylation enrichment (Fyn): 0.508
phosphorylation enrichment (Hck): 0.808
phosphorylation enrichment (Jak2): 0.756
phosphorylation enrichment (MERTK): 0.397
phosphorylation enrichment (c-Abl (mouse)): 0.633
phosphorylation enrichment (c-Src): 0.56

SH2 binding enrichment (Grb2 SH2): 0.947
SH2 binding enrichment (SHP2-C SH2): 0.688
SH2 binding enrichment (c-Src SH2): 1.45
Sequence: KSPDSYQKILP [ATM_Y1415_L1420P]
phosphorylation enrichment (AncSZ): 0.544
phosphorylation enrichment (EPHB1): 0.387
phosphorylation enrichment (EPHB2): 0.321
phosphorylation enrichment (FGFR1): 0.517
phosphorylation enrichment (FGFR3): 0.429
phosphorylation enrichment (Fer (mouse)): 0.531
phosphorylation enrichment (Fes): 0.584
phosphorylation enrichment (Fyn): 0.427
phosphorylation enrichment (Hck): 0.36
phosphorylation enrichment (Jak2): 0.519
phosphorylation enrichment (MERTK): 0.414
phosphorylation enrichment (c-Abl (mouse)): 0.431
phosphorylation enrichment (c-Src): 0.389

SH2 binding enrichment (Grb2 SH2): 0.955
SH2 binding enrichment (SHP2-C SH2): 0.834
SH2 binding enrichment (c-Src SH2): 0.683
Sequence: KSRQIYDAYIM [GRK3_Y109_R104K]
phosphorylation enrichment (AncSZ): 0.797
phosphorylation enrichment (EPHB1): 2.98
phosphorylation enrichment (EPHB2): 7
phosphorylation enrichment (FGFR1): 0.505
phosphorylation enrichment (FGFR3): 0.546
phosphorylation enrichment (Fer (mouse)): 12.4
phosphorylation enrichment (Fes): 0.735
phosphorylation enrichment (Fyn): 11.1
phosphorylation enrichment (Hck): 8.38
phosphorylation enrichment (Jak2): 0.581
phosphorylation enrichment (MERTK): 6.9
phosphorylation enrichment (c-Abl (mouse)): 5.89
phosphorylation enrichment (c-Src): 8.25

SH2 binding enrichment (Grb2 SH2): 0.758
SH2 binding enrichment (SHP2-C SH2): 0.913
SH2 binding enrichment (c-Src SH2): 0.493
Sequence: KTSGNYLPVTG [WDR19_Y28_A30P]
phosphorylation enrichment (AncSZ): 0.519
phosphorylation enrichment (EPHB1): 0.474
phosphorylation enrichment (EPHB2): 0.435
phosphorylation enrichment (FGFR1): 0.369
phosphorylation enrichment (FGFR3): 0.37
phosphorylation enrichment (Fer (mouse)): 0.359
phosphorylation enrichment (Fes): 0.543
phosphorylation enrichment (Fyn): 0.41
phosphorylation enrichment (Hck): 0.405
phosphorylation enrichment (Jak2): 0.524
phosphorylation enrichment (MERTK): 0.598
phosphorylation enrichment (c-Abl (mouse)): 0.446
phosphorylation enrichment (c-Src): 0.402
